The source of these data is publication PMC6123407.

What all share (assay): purified protein
Substrate in series [1]: N=C(N)NCCCCN
To be noted: 100 μM p-coumaroyl-CoA, 50 mM Tris-HCl pH 7.5, room temperature, apparent Km, acyl-acceptor.

Substrate in series [2]: CC(C)(COP(=O)(O)OP(=O)(O)OC[C@H]1O[C@@H](n2cnc3c(N)ncnc32)[C@H](O)[C@@H]1OP(=O)(O)O)[C@@H](O)C(=O)NCCC(=O)NCCSC(=O)/C=C/c1ccc(O)cc1
To be noted: 100 μM agmatine sulphate, 50 mM Tris-HCl pH 7.5, room temperature, apparent Km, acyl-donor.

Substrate in series [3]: COc1cc(/C=C/C(=O)SCCNC(=O)CCNC(=O)[C@H](O)C(C)(C)COP(=O)(O)OP(=O)(O)OC[C@H]2O[C@@H](n3cnc4c(N)ncnc43)[C@H](O)[C@@H]2OP(=O)(O)O)ccc1O
To be noted: 100 μM agmatine sulphate, 50 mM Tris-HCl pH 7.5, room temperature, apparent Km, acyl-donor.

Substrate in series [4]: NCCCCN
The note with it: 100 μM p-coumaroyl-CoA, 50 mM Tris-HCl pH 7.5, room temperature, apparent Km, acyl-acceptor.

B1: HvACT1 (agmatine coumaroyltransferase, ACT) (Hordeum vulgare) (protein)
chain: MKITVHSSKAVKPEYGACGLAPGCTADVVPLTVLDKANFDTYISVIYAFHAPAPPNAVLEAGLGRALVDYREWAGRLGVDASGGRAILLNDAGARFVEATADVALDSVMPLKPTSEVLSLHPSGDDGPEELMLIQVTRFACGSLVVGFTTQHIVSDGRSTGNFFVAWSQATRGAAIDPVPVHDRASFFHPREPLHVEYEHRGVEFKPCEKAHDVVCGADGDEDEVVVNKVHFSREFISKLKAHASAGAPRPCSTLQCVVAHLWRSMTMARGLDGGETTSVAIAVDGRARMSPQVPDGYTGNVILWARPTTTAGELVTRPVKHAVELISREVARINDGYFKSFIDFANSGAVEKERLVATADAADMVLSPNIEVDSWLRIPFYDMDFGGGRPFFFMPSYLPVEGLLILLPSFLGDGSVDAYVPLFSRDMNTFKNCCYSLD
As for B1, the Km in the series “purified protein [1]” is 1.7 ± 0.13 µM; in “purified protein [2]” it was 1.1 ± 0.12 µM; in “purified protein [3]”, 2.0 ± 0.14 µM; in “purified protein [4]” it was 7,200 ± 530 μM. For the same protein, the kcat in the series “purified protein [1]” came to 38 s⁻¹; in “purified protein [2]”, 39 s⁻¹; in “purified protein [3]”, 18 s⁻¹; in the series “purified protein [4]” it was 4.7 s⁻¹. Further, the kcat/Km was 2.2e+07 M⁻¹ s⁻¹ in “purified protein [1]”, 3.5e+07 M⁻¹ s⁻¹ in “purified protein [2]”, 9e+06 M⁻¹ s⁻¹ in “purified protein [3]” and 650 M⁻¹ s⁻¹ in the series “purified protein [4]”.
